According to US9487580:

Molecular target: T1, recombinant human IL-23 (p19/p40 heterodimer) (human, UniProt Q9NPF7)
T1 chain 1: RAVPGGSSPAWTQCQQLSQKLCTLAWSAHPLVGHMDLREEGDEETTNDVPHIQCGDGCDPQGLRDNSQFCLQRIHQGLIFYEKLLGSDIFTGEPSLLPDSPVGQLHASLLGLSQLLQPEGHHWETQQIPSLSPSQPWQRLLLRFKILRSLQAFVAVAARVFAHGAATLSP
T1 chain 2: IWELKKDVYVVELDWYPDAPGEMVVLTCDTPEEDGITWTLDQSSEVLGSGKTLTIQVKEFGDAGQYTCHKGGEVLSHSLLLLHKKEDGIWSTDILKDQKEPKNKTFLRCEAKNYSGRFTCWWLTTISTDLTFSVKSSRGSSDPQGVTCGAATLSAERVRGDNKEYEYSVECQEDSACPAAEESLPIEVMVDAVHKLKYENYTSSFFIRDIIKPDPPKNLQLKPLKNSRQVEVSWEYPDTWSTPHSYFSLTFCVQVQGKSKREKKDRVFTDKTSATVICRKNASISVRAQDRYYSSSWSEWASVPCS
Experiment: KinExA

Kd: 3.99 pM
B1: Antibody B (antibody, V domains shown)
VH: QVQLQESGPGLVKPSQTLSLTCTVSGGSISSGGYYWSWIRQHPGKGLEWIGHIHYSGNTYYNPSLKSRVTISVDTSKNQFSLKLSSVTAADTAVYYCARNRGFYYGMDVWGQGTTVTVSS
VL: DIQMTQSPSSVSASVGDRVTITCRASQVISSWLAWYQQKPGKAPSLLIYAASSLQSGVPSRFSGSVSGTDFTLTISSLQPEDFATYYCQQANSFPFTFGPGTKVDFK
